# Measured values reported in paper PMC11503491.
# pKd: −log10 of the molar value.
# Legend:
# Experiment in all cases: BLI
# [1] = target: R11K (RBD 319-533 with 11 added lysines and the repackaging substitutions Y365F, F392W, V395I) (SARS-CoV-2 Wuhan Hu-1)
# [2] = target: R11K-CL (R11K cross-linked with Bis-NHS-PEG5 while protected on S2X259 resin) (SARS-CoV-2 Wuhan Hu-1)
# [3] = target: R11K-PMD (R11K modified with NHS-PEG4-methyl while protected on S2X259 resin) (SARS-CoV-2 Wuhan Hu-1)
# [4] = target: R11K (RBD with 11 additional lysines and three repackaging substitutions) (SARS-CoV-2 Wuhan Hu-1)
# [5] = target: R11K-CL (R11K cross-linked with Bis-NHS-PEG5 while protected by S2X259) (SARS-CoV-2 Wuhan Hu-1)
# [6] = target: R11K-PMD (R11K modified with NHS-PEG4-methyl while protected by S2X259) (SARS-CoV-2 Wuhan Hu-1)
substance,measurement,setting,value
CR3022 (class 4 RBD-directed antibody),koff,[1],0.059 s⁻¹
S309 (class 3 RBD-directed antibody),koff,[2],0.0021 s⁻¹
same,koff,[1],0.00014 s⁻¹
same,koff,[3],0.0019 s⁻¹
fragment antigen-binding region (Fab) of S2X259,pKd,[4],8.82
CB6 (class 1 RBD-directed antibody),koff,[1],0.037 s⁻¹
S2X259 IgG (antibody),koff,[5],0.001 s⁻¹
same,koff,[6],0.00085 s⁻¹
S2X259 (class 4 RBD-directed antibody),koff,[1],0.0021 s⁻¹
